Data taken from publication PMC4576209, “Biochemical characterization of FIKK8 – A unique protein kinase from the malaria parasite Plasmodium falciparum and other apicomplexans” (Molecular and Biochemical Parasitology, 2015).

Substrate: Nc1ncnc2c1ncn2[C@@H]1O[C@H](COP(=O)(O)OP(=O)(O)OP(=O)(O)O)[C@@H](O)[C@H]1O
Experiment: LDH-PK coupled kinase assay
Assay type: biochemical, Cryptosporidium parvum
Conditions: peptide substrate; MgCl2 stated only for autophosphorylation

B1: CpFIKKd (Cryptosporidium parvum Iowa II) (protein)
chain: GKNDKVCYTWKEAKQLISKLKSSTKLYKFNGVPFSDWAHEKIPTLGASPTSCRVQEMFKSRIYLEKNNEVYATLFIKKIPRNIWSKQWEMHEIWDGDYVTDGEDFVMEAAALAFLQNHSVGIAPRLYAILEHCEDNCNDINSNKESKIQYRNIANRNACDYLLSKDTTHIILVSEHYGEDLLDYLDKCEKKNRNLTDKEKKELQYKLALALNNLHSKGLCHLDFTPENILIGPNGINICDFAKSTPIITKNPRHTHYSRKSPKNHLSENFNSNNTSFNFINPPPEAYCEFESCEPTVGKGAYMPPECWKIFWRLEENKIQFPLEELMDIDTYNRRSNYSYFNEFSRIHNKSPIKCQDRSMFYFNTRIADIYMLGIIMFWIWSDGGIWKYSDTRQDHRYQNLVFSDINFDVFRECRGWNKQLKSLLKKMLEPDPNKRITMSEILSDPWWKCPLDE
notes: kinase domain plus N-terminal extension (38 or more residues); E. coli
  Km: 48.0 ± 0.9 µM
  kcat: 1.3 ± 0.0083 s⁻¹
  kcat/Km: 26700 M⁻¹ s⁻¹
